Patent US20060127402A1 (TECHNION RESEARCH AND DEVELOPMENT FOUNDATION, published 2006)

Molecular target: T1, LOR-1 (lysyl oxidase related protein-1) (human, UniProt Q9Y4K0 26-774, limits assumed)
T1 construct: also called hLOR1
T1 sequence: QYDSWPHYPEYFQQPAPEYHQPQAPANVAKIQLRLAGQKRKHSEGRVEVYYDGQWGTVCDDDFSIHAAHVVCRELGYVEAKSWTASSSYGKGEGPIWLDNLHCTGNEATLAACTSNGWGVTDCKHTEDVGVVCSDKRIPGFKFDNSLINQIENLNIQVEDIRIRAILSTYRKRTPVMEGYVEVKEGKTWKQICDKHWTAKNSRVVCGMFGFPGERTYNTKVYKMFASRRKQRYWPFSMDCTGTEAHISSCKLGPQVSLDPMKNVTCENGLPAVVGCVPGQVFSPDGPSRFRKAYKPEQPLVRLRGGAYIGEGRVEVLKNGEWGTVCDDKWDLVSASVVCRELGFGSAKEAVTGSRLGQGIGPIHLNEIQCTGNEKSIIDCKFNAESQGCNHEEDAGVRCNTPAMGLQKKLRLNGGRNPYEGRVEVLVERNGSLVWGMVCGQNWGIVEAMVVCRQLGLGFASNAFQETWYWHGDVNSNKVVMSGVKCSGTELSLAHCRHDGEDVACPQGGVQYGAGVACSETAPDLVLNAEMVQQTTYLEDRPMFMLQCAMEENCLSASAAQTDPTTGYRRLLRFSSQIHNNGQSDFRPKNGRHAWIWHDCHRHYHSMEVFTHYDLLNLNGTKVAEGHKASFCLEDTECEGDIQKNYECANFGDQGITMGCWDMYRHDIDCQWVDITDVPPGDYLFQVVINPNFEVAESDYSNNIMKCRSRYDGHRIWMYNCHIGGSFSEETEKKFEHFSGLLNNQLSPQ
Experiment: PF4 affinity column, 35S-methionine labeled cells, SDS-PAGE

B1: Human recombinant platelet factor-4 (PF4, GenBank Accession number M20901) (ligand, UniProt P02776 32-101, looked up)
chain: EAEEDGDLQCLCVKTTSQVRPRHITSLEVIKAGPHCPTAQLIATLKNGRKICLDLQAPLYKKIIKKLLES
notes: Supplied by Repligen Corp
- binding result: binds
